Test results from patent publication US20200199241A1 (Chugai, published 2020).
Substitutions are numbered along the chain they refer to.

B1: IgG1-F993 (antibody)
heavy: QVQLQESGPGLVKPSETLSLTCAVSGHSISHDHAWSWVRQPPGEGLEWIGFISYSGITNYNPSLQGRVTISRDNSKNTLYLQMNSLRAEDTAVYYCARSLARTTAMDYWGEGTLVTVSSASTKGPSVFPLAPSSKSTSGGTAALGCLVKDYFPEPVTVSWNSGALTSGVHTFPAVLQSSGLYSLSSVVTVPSSSLGTQTYICNVNHKPSNTKVDKKVEPKSCDKTHTCPPCPAPELLGGPSVFLFPPKPKDTLYISRTPEVTCVVVDVSHEDPEVKFNWYVDGVEVHNAKTKPREEQYNSTYRVVSVLQVLHADWLNGKEYKCKVSNKALPAPIEKTISKAKGQPREPQVYTLPPSRDELTKNQVSLTCLVKGFYPSDIAVEWESNGQPENNYKTTPPVLDSDGSFFLYSKLTVDKSRWQQGNVFSCSVMHEALHYHVTQKSLSLSP
light: not shown
notes: EU numbering; copies: 2 + 2
B2: IgG1-F1027 (antibody)
heavy: B1 heavy with L237R, S241K, Q309A, A313H
light: not shown
notes: EU numbering; copies: 2 + 2
B3: IgG1-F1046 (antibody)
heavy: B1 heavy with L237K, S241K, T252V, N288E, V310P
light: not shown
notes: EU numbering; copies: 2 + 2
B4: IgG1-F997 (antibody)
heavy: B1 heavy with K250I, T252V, Q309T, A313Q
light: not shown
notes: EU numbering; copies: 2 + 2
B5: IgG1-F1011 (antibody)
heavy: B1 heavy with T252V, Q309T, V310P, A313Q, V438Y
light: not shown
notes: EU numbering; copies: 2 + 2
B6: IgG1-F1063 (antibody)
heavy: B1 heavy with Q309T, A313Q, P389S
light: not shown
notes: EU numbering; copies: 2 + 2
B7: IgG1-F1038 (antibody)
heavy: B1 heavy with L237K, P240D, S241K, Q309T, A313Q, V438Y
light: not shown
notes: EU numbering; copies: 2 + 2
B8: IgG1-F1036 (antibody)
heavy: B1 heavy with L237K, S241K, N288E
light: not shown
notes: EU numbering; copies: 2 + 2
B9: IgG1-F1058 (antibody)
heavy: B1 heavy with Q309T, A313Q, Q388E
light: not shown
notes: EU numbering; copies: 2 + 2
B10: IgG1-F1010 (antibody)
heavy: B1 heavy with L237R, S241K, Q309A, A313H, V438Y
light: not shown
notes: EU numbering; copies: 2 + 2
B11: IgG1-F1064 (antibody)
heavy: B1 heavy with Q309T, A313Q, V424E
light: not shown
notes: EU numbering; copies: 2 + 2
B12: IgG1-F1077 (antibody)
heavy: B1 heavy with K250N, Q309T, A313Q, V438Y
light: not shown
notes: EU numbering; copies: 2 + 2
B13: IgG1-F1024 (antibody)
heavy: B1 heavy with T252V, K328D, L330Y
light: not shown
notes: EU numbering; copies: 2 + 2
B14: IgG1-F1034 (antibody)
heavy: B1 heavy with L237K, S241K, Q309T, V310P, A313Q
light: not shown
notes: EU numbering; copies: 2 + 2
B15: IgG1-F1074 (antibody)
heavy: B1 heavy with S241D, Q309T, A313Q
light: not shown
notes: EU numbering; copies: 2 + 2
B16: IgG1-F1051 (antibody)
heavy: B1 heavy with L237R, S241K, T252V, N288E, V310P, M430I
light: not shown
notes: EU numbering; copies: 2 + 2
B17: IgG1-F1047 (antibody)
heavy: B1 heavy with L237K, S241K, N288E, V310P
light: not shown
notes: EU numbering; copies: 2 + 2
B18: IgG1-F998 (antibody)
heavy: B1 heavy with K250Y, T252V, Q309T, A313Q
light: not shown
notes: EU numbering; copies: 2 + 2
B19: IgG1-F1025 (antibody)
heavy: B1 heavy with S241D, T252V, K328D, L330Y
light: not shown
notes: EU numbering; copies: 2 + 2
B20: IgG1-F1037 (antibody)
heavy: B1 heavy with L237K, S241K, M430I
light: not shown
notes: EU numbering; copies: 2 + 2
B21: IgG1-F1043 (antibody)
heavy: B1 heavy with L237K, S241K, T252V, Q309T, V310P, A313Q, V438Y
light: not shown
notes: EU numbering; copies: 2 + 2
B22: IgG1-F1040 (antibody)
heavy: B1 heavy with L237K, S241K, T252V, Q309T, A313Q
light: not shown
notes: EU numbering; copies: 2 + 2
B23: IgG1-F1067 (antibody)
heavy: B1 heavy with Q309T, A313Q, S426E
light: not shown
notes: EU numbering; copies: 2 + 2
B24: IgG1-F1070 (antibody)
heavy: B1 heavy with Q309T, A313Q, Q440R
light: not shown
notes: EU numbering; copies: 2 + 2
B25: IgG1-F994 (antibody)
heavy: B1 heavy with Q309T, A313Q, N327G, V438Y
light: not shown
notes: EU numbering; copies: 2 + 2
B26: IgG1-F995 (antibody)
heavy: B1 heavy with L237R, P240D, S241K, Q309T, A313Q, V438Y
light: not shown
notes: EU numbering; copies: 2 + 2
B27: IgG1-F1048 (antibody)
heavy: B1 heavy with L237K, S241K, Q309A, A313H
light: not shown
notes: EU numbering; copies: 2 + 2
B28: IgG1-F1052 (antibody)
heavy: B1 heavy with L237R, S241K, N288E, V310P, M430I
light: not shown
notes: EU numbering; copies: 2 + 2
B29: IgG1-F1021 (antibody)
heavy: B1 heavy with P240D, T252V, Q309T, A313Q, N327A, V438Y
light: not shown
notes: EU numbering; copies: 2 + 2
B30: IgG1-F1012 (antibody)
heavy: B1 heavy with L237R, S241K, T252V, Q309T, V310P, A313Q, V438Y
light: not shown
notes: EU numbering; copies: 2 + 2
B31: IgG1-F999 (antibody)
heavy: B1 heavy with T252V, E260H, Q309T, A313Q
light: not shown
notes: EU numbering; copies: 2 + 2
B32: IgG1-F1045 (antibody)
heavy: B1 heavy with L237K, S241K, V310P, V438Y
light: not shown
notes: EU numbering; copies: 2 + 2
B33: IgG1-F1044 (antibody)
heavy: B1 heavy with L237K, S241K, T252V, V310P, V438Y
light: not shown
notes: EU numbering; copies: 2 + 2
B34: IgG1-F1016 (antibody)
heavy: B1 heavy with T252V, N288E, V310P
light: not shown
notes: EU numbering; copies: 2 + 2
B35: IgG1-F1066 (antibody)
heavy: B1 heavy with Q309T, A313Q, V424S
light: not shown
notes: EU numbering; copies: 2 + 2
B36: IgG1-F1018 (antibody)
heavy: B1 heavy with L237R, S241K, N288E, V310P
light: not shown
notes: EU numbering; copies: 2 + 2
B37: IgG1-F1069 (antibody)
heavy: B1 heavy with Q309T, A313Q, Q440E
light: not shown
notes: EU numbering; copies: 2 + 2
B38: IgG1-F1053 (antibody)
heavy: B1 heavy with L237R, S241K, T252V
light: not shown
notes: EU numbering; copies: 2 + 2
B39: IgG1-F1029 (antibody)
heavy: B1 heavy with T252V, I334E
light: not shown
notes: EU numbering; copies: 2 + 2
B40: IgG1-F1023 (antibody)
heavy: B1 heavy with S241D, T252V
light: not shown
notes: EU numbering; copies: 2 + 2
B41: IgG1-F1008 (antibody)
heavy: B1 heavy with L237R, S241K, T252V, Q309T, A313Q
light: not shown
notes: EU numbering; copies: 2 + 2
B42: IgG1-F996 (antibody)
heavy: B1 heavy with L237R, P240D, S241K, Q309T, A313Q
light: not shown
notes: EU numbering; copies: 2 + 2
B43: IgG1-F1013 (antibody)
heavy: B1 heavy with T252V, V310P, V438Y
light: not shown
notes: EU numbering; copies: 2 + 2
B44: IgG1-F1065 (antibody)
heavy: B1 heavy with Q309T, A313Q, V424R
light: not shown
notes: EU numbering; copies: 2 + 2
B45: IgG1-F1042 (antibody)
heavy: B1 heavy with L237K, S241K, Q309A, A313H, V438Y
light: not shown
notes: EU numbering; copies: 2 + 2
B46: IgG1-F1028 (antibody)
heavy: B1 heavy with G238A, S241D, T252V
light: not shown
notes: EU numbering; copies: 2 + 2
B47: IgG1-F1035 (antibody)
heavy: B1 heavy with L237K, S241K, V310P
light: not shown
notes: EU numbering; copies: 2 + 2
B48: IgG1-F1026 (antibody)
heavy: B1 heavy with Q309A, A313H
light: not shown
notes: EU numbering; copies: 2 + 2
B49: IgG1-F1075 (antibody)
heavy: B1 heavy with Q309T, A313Q, K328D, L330Y
light: not shown
notes: EU numbering; copies: 2 + 2
B50: IgG1-F1009 (antibody)
heavy: B1 heavy with L237R, S241K, T252V, V310P
light: not shown
notes: copies: 2 + 2
B51: IgG1-F1050 (antibody)
heavy: B1 heavy with T252V, N288E, V310P, M430I
light: not shown
notes: EU numbering; copies: 2 + 2
B52: IgG1-F1061 (antibody)
heavy: B1 heavy with Q309T, A313Q, P389E
light: not shown
notes: EU numbering; copies: 2 + 2
B53: IgG1-F1041 (antibody)
heavy: B1 heavy with L237K, S241K, T252V, V310P
light: not shown
notes: EU numbering; copies: 2 + 2
B54: IgG1-F1073 (antibody)
heavy: B1 heavy with Q309T, A313Q, S442R
light: not shown
notes: EU numbering; copies: 2 + 2
B55: IgG1-F1059 (antibody)
heavy: B1 heavy with Q309T, A313Q, Q388R
light: not shown
notes: EU numbering; copies: 2 + 2
B56: IgG1-F1015 (antibody)
heavy: B1 heavy with L237R, S241K, V310P, V438Y
light: not shown
notes: EU numbering; copies: 2 + 2
B57: IgG1-F1068 (antibody)
heavy: B1 heavy with Q309T, A313Q, S426R
light: not shown
notes: EU numbering; copies: 2 + 2
B58: IgG1-F1032 (antibody)
heavy: B1 heavy with P240D, T252V, N327G
light: not shown
notes: EU numbering; copies: 2 + 2
B59: IgG1-F1020 (antibody)
heavy: B1 heavy with P240D, T252V, N327G, V438Y
light: not shown
notes: EU numbering; copies: 2 + 2
B60: IgG1-F1062 (antibody)
heavy: B1 heavy with Q309T, A313Q, P389R
light: not shown
notes: EU numbering; copies: 2 + 2

Target: T1, soluble human FcRn complexed with β2-microglobulin (human, UniProt P61769 21-119, limits assumed)
T1 construct: also called hFcRn
Experiment: Biacore SPR, pH 7.0;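 note: test antibodies captured on a Protein L chip with human FcRn flowed over as analyte, KD obtained as the ratio of dissociation to association rate constants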

T1 sequence (chain, as listed by the source limits assumed, chain 1 of 2): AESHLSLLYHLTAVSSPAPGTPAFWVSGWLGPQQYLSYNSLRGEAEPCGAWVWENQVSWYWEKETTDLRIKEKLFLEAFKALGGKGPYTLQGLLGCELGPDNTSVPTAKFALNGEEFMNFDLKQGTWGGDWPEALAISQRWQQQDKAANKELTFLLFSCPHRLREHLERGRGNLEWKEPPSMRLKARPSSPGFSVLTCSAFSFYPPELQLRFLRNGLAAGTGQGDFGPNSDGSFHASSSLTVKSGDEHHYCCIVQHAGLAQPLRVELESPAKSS
T1 sequence (P61769 21-119 limits assumed, chain 2 of 2): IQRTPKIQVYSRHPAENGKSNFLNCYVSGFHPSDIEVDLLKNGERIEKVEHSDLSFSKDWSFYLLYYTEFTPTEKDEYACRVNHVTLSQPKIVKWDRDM

Binder | Kd
B1 | 38 nM
B2 | 86 nM
B3 | 4.5 nM
B4 | 380 nM
B5 | 45 nM
B6 | 143 nM
B7 | 280 nM
B8 | 14 nM
B9 | 131 nM
B10 | 190 nM
B11 | 132 nM
B12 | 2030 nM
B13 | 40 nM
B14 | 15 nM
B15 | 132 nM
B16 | 3.9 nM
B17 | 3.4 nM
B18 | 850 nM
B19 | 36 nM
B20 | 61 nM

Binder | Kd
B21 | 52 nM
B22 | 200 nM
B23 | 126 nM
B24 | 173 nM
B25 | 280 nM
B26 | 290 nM
B27 | 99 nM
B28 | 3.2 nM
B29 | 330 nM
B30 | 47 nM
B31 | 210 nM
B32 | 25 nM
B33 | 35 nM
B34 | 3.8 nM
B35 | 145 nM
B36 | 3.2 nM
B37 | 139 nM
B38 | 42.3 nM
B39 | 51 nM
B40 | 44 nM

Binder | Kd
B41 | 170 nM
B42 | 130 nM
B43 | 30 nM
B44 | 138 nM
B45 | 200 nM
B46 | 46 nM
B47 | 10 nM
B48 | 84 nM
B49 | 140 nM
B50 | 12 nM
B51 | 3.5 nM
B52 | 119 nM
B53 | 14 nM
B54 | 134 nM
B55 | 139 nM
B56 | 22 nM
B57 | 169 nM
B58 | 43 nM
B59 | 85 nM
B60 | 120 nM
